In the PETadex activity labels (doi:10.1074/jbc.m303867200):

Columns and labels:
Settings in all cases: pH 8; 37 °C
p-NP-C12 = substrate: p-NP-C12
p-NP-C2 = substrate: p-NP-C2
p-NP-C3 = substrate: p-NP-C3
p-NP-C4 = substrate: p-NP-C4
p-NP-C6 = substrate: p-NP-C6

B1: unnamed (protein)
chain: MNNIWWQTKGQGNVHLVLLHGWGLNAEVWRCIDEELSSHFTLHLVDLPGFGRSRGFGALSLADMAEAVLQQAPDKAIWLGWSLGGLVASQIALTHPERVQALVTVASSPCFSARDEWPGIKPDVLAGFQQQLSDDFQRTVERFLALQTMGTETARQDARALKKTVLALPMPEVDVLNGGLEILKTVDLRQPLQNVSMPFLRLYGYLDGLVPRKVVPMLDKLWPHSESYIFAKAAHAPFISHPAEFCHLLVALKQRV
Protein B1 has a Km (p-NP-C12) of 600 µM, a kcat (p-NP-C12) of 1.5 s⁻¹ and a kcat/Km (p-NP-C12) of 2500 M⁻¹ s⁻¹. The Km (p-NP-C2) was 290 µM, the kcat (p-NP-C2) was 18.5 s⁻¹ and the kcat/Km (p-NP-C2) was 63800 M⁻¹ s⁻¹. It also gave a Km (p-NP-C3) of 350 µM, a kcat (p-NP-C3) of 13.1 s⁻¹ and a kcat/Km (p-NP-C3) of 37400 M⁻¹ s⁻¹. It also gave a Km (p-NP-C4) of 330 µM, a kcat (p-NP-C4) of 6.1 s⁻¹ and a kcat/Km (p-NP-C4) of 18500 M⁻¹ s⁻¹. For the same protein, the Km (p-NP-C6) was 250 µM, the kcat (p-NP-C6) was 4 s⁻¹ and the kcat/Km (p-NP-C6) was 16000 M⁻¹ s⁻¹.
